Source: patent US20250360220A1, “REGULATION OF TAU USING PROTEIN-LIKE POLYMERS AND USES THEREOF” (NORTHWESTERN UNIVERSITY, priority 2022, published 2025)

What was measured:
[1] = target: T1, K18 Tau (Homo sapiens, UniProt P10636); test: Tau Kinetics Thioflavin T plate reader assay; assay type: biochemical; settings: for PLP or Pep/Tau %: Avg P amplitude divided by Avg Tau amplitude x 100; for PLP or Pep 10 hr (average amplitude, fluorescent intensity readout, of the Tau trace treated with that compound) / PLP or Pep 15 hr (average amplitude) / PLP or Pep 20 hr (average amplitude): K18 Tau 10 μM, heparin, thioflavin T, PBS; for Avg P Amplitude: average of the amplitudes at 10, 15 and 20 hr; for % amp change: change in amplitude relative to control Tau
T1 construct: K18 Tau was first expressed, collected, and purified; His tag (cleaved yes); made in house
T1 sequence (P10636 561-685 limits assumed): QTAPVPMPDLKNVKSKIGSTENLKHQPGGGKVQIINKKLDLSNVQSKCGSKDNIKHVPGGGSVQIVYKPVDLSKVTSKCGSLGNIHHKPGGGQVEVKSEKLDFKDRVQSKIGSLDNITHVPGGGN
Protocol: (§1) Tau Kinetics Thioflavin T Plate Reader Assay Protocol: First, controls and the effects of varying concentrations of K18 Tau were examined (FIG. 24). In FIG. 24, 1X Tau refers to 10 μM K18 Tau final concentration in the well with 100 μl total volume (i.e., 0.5× Tau refers to 5 μM K18 Tau and 2× Tau refers to 20 μM K18 Tau). Before PLPs were added to K18 Tau, the concentration at which the mimetic aggregative polymers would not activate Thioflavin T was evaluated. Based on the results depicted in FIG. 25, a PLP concentration of 1 μM was selected for further experimentations. […] Given the goal to investigate effects of the PLPs, it was determined that too high of a concentration could easily be adjusted, whereas too low of a concentration could result in a false negative with respect to impact.
PLPs incorporating SEQ ID: 4 (“TP4”), SEQ ID: 2 (“TP7”), or SEQ ID: 10 (“TP12”) as peptide sidechains were tested. The PLPs, K18 Tau (10 μM) and Thio T (Sigma) at a final concentration of 10 μM was added, and aggregation was induced by the addition of a freshly prepared heparin sodium salt solution (Santa Cruz) at a final concentration of 44 μg/ml. For non-induced controls, assay buffer was added in place of heparin solution to a final volume of 100 μl per well. Aggregation reactions were carried out at 37° C. with continuous shaking and monitored via ThT fluorescence (excitation, 444 nm; emission, 485 nm; cutoff, 480 nm) in a Spectramax M5 microplate reader (Molecular Devices). Readings were taken every 5 min for a minimum of 24 h.
Table C. Summary of results depicted in FIGS. 26, 28, and 29 in the event the graphical representations are difficult to ascertain. Values are rounded to the nearest whole number. Tau 10 hr refers to the average amplitude (fluorescent intensity readout) of an n=6 of the control Tau (meaning no peptide or polymer added, just heparin, thioflavin T, and PBS) trace at 10 hour. The same applies to Tau 15 hr and Tau 20 hr. Avg Tau amplitude refers to the average of the amplitudes at 10, 15, and 20 hr in the previous columns. As Tau is the control for each individual plate, and these readings were done on three separate plates, there are 3 different sets of average amplitudes. Similar to the aforementioned, PLP or Pep 10 hr refers to the average amplitude (n=6 for PLP and n=3 for peptide) of the Tau trace treated with that compound at 10 hours. Avg P amplitude refers to the average of the amplitude at the 3 times, or the average of the 3 previous columns. PLP or Pep/Tau % is the result of dividing the Avg P amplitude by Avg Tau amplitude and multiplying by 100. % amp change refers to the change in amplitude given by subtracting Tau average amplitude from P average amplitude and dividing by Tau average amplitude and multiplying by 100.

[2] = Circular dichroism; assay type: physicochemical; settings: 37° C.; for CD conformation of free peptides: before and after addition of heparin; for CD conformation of PLPs: Tris buffer pH 7.4
Protocol: The proteomimetic similarities were further investigated using circular dichroism. Samples tested included K18 Tau, PLPs having SEQ ID: 4, SEQ ID: 2, and SEQ ID: 10, as well as said PLPs with K18 Tau. Each of these samples were dissolved in Tris buffer (10 mM Tris, 50 mM NaF, 0.5 mM dithiothreitol) and pH was adjusted to 7.4. Samples were tested with and without the addition of heparin. For samples containing heparin, samples were incubated in the presence of 10 μM heparin sodium salt for 24 hours. Polymers and peptides were run at 37° C., at a concentration of 3 mg/10 ml and K18 Tau was run at 10 uM. Parameters were: 1 mm quartz cuvette, continuous scan at 10 nm/min over 260 to 200 nm, 3 acquisitions averaged for one trace.

[3] = Concentration dependence of polymer activation of Thioflavin T (no Tau); settings: 1 μM PLP, no Tau (FIG. 25)
Description: FIG. 25: Concentration dependence of polymer activation of Thioflavin T. TP4: PLP homopolymer incorporating SEQ ID: 4 as peptide sidechains. TP7: PLP homopolymer incorporating SEQ ID: 2 as peptide sidechains. TP4 and TP7 controls: PLP homopolymer, thioflavin T, no heparin, and PBS. The remainder of controls were at baseline and were removed from this FIG. 25 to improve readability. ThioT control: no Tau, no heparin, thioflavin T and PBS. ThioT heparin control: no Tau, no PLPs, thioflavin T, heparin, and PBS. n=3.
as §1

[4] = system: Mouse striatal cells HdhQ7/7; test: Cell permeability assay with rhodamine labeled PLPs (confocal imaging); assay type: cell-based; settings: incubated with the cells for 24 hours
Protocol: Mouse striatal cells HdhQ7/7 from Coriell Institute were plated in 4-chamber 35 mm round glass-bottom dishes at a density of 50,000 per well. Cells were incubated for 24 hours in a 5% CO2 atmosphere at 33° C. Rhodamine labeled PLPs, rhodamine dye, and vehicle control in 10% FBS DMEM medium without phenol red were incubated with the cells for 24 hours, respectively. The cell nuclei (stained with Hoechst) were accomplished using a 405 nm laser with a 15% laser power. The cell membrane (stained with Wheat Germ Agglutinin, Alexa Fluor 488 Conjugate) was accomplished using a 488 nm laser with a 12% laser power. Cell imaging for Rhodamine fluorescence was accomplished using a 581 nm laser with an 8% laser power.

[5] = Liquid-liquid phase separation (LLPS) of rhodamine labeled PLPs; assay type: physicochemical
Protocol: Solutions were dissolved in HEPES buffer: 10 mM HEPES buffer (pH 7.4) with 0.1 mM EDTA and 2 mM DTT, Media buffer: Dulbecco Modified Eagles Medium (high glucose) with 2 mM L-glutamine with 10% Fetal Bovine Serum, 1% Penicillin/Streptomycin, or water. Different crowding agents were also tested using HEPES buffer—PEG and heparin. For heparin, stock solutions of 10 μM of each rhodamine labeled PLP (using either SEQ ID: 4 or SEQ ID: 7 as peptide monomers) and 30 μM of heparin sodium salt were prepared in buffer and kept refrigerated. Before experiments, solutions were given at least 30 min to come to room temperature and experiments were carried out at room temperature. In the microscope room, 20 μL of PLP was added to 5 μL of heparin and mixed gently in a microcentrifuge tube. 5 μL of solution was immediately pipetted onto Fisherbrand glass microscope slides and coverslip applied. All reactions were visualized on Olympus BX53 Fluorescent Microscope using the 581 nm laser to monitor the rhodamine, as well as brightfield. LLPS occurred within 60 min of initiation.

[6] = STEM / dry state TEM of PLP homopolymers; assay type: physicochemical; settings: prepared in H2O
Protocol: Using standard STEM protocols, PLPs having SEQ ID: 2 or SEQ ID: 4 as peptide monomers were prepared in H2O and visualized. […] Further, from the results depicted in FIG. 17, the homopolymer the beta sheet forming nature was confirmed. After putting the PLPs in HEPES LLPS buffer and heating to 37° C. (i.e., body temperature), a time course established the fibrilization of the polymer on dry state TEM. The same fibrilization was seen on purified K18 Tau protein 24 hours after incubation with heparin in PBS as depicted in FIG. 19. The remarkably similar characteristics was a testament to the mimetic capabilities of the PLP.

Row | Substance | PLP or Pep/Tau % ([1]; 1 μM PLP/Pep) | PLP or Pep 10 hr (average amplitude, fluorescent intensity readout, of the Tau trace treated with that compound) ([1]; 1 μM PLP/Pep) | PLP or Pep 15 hr (average amplitude) ([1]; 1 μM PLP/Pep) | PLP or Pep 20 hr (average amplitude) ([1]; 1 μM PLP/Pep) | Avg P Amplitude ([1]; 1 μM PLP/Pep) | % amp change ([1]; 1 μM PLP/Pep) | PLP or Pep/Tau % ([1]; 10 μM PLP/Pep) | PLP or Pep 10 hr (average amplitude, fluorescent intensity readout, of the Tau trace treated with that compound) ([1]; 10 μM PLP/Pep) | PLP or Pep 15 hr (average amplitude) ([1]; 10 μM PLP/Pep) | PLP or Pep 20 hr (average amplitude) ([1]; 10 μM PLP/Pep) | Avg P Amplitude ([1]; 10 μM PLP/Pep) | % amp change ([1]; 10 μM PLP/Pep) | CD conformation of free peptides [2] | CD conformation of PLPs ([2]; after addition of heparin) | CD conformation of PLPs ([2]; before heparin was added) | other results
1 | DRVQIVYKRR [P7] | 135% | 417 | 411 | 545 | 458 | 11% | 126% | 395 | 448 | 438 | 427 | 4% | beta sheet formation |  |  | 
2 | TP4: PLP generated from peptide monomers characterized by SEQ ID: 4 (VQIINKRR) | 143% | 730 | 936 | 961 | 876 | 44% |  |  |  |  |  |  |  | beta sheet formation | random coil formations | Thioflavin T signal of the polymer [3]: significant signal; Capability to permeate the striatal cells [4]: demonstrated the capability to permeate the striatal cells; Liquid-liquid phase separation ([5]; HEPES buffer with PEG as crowding agent): induce LLPS phase condensates; Liquid-liquid phase separation ([5]; HEPES buffer with heparin, room temperature): capable of liquid-liquid phase separation; Conformation by STEM [6]: beta sheet conformations
3 | TP12: PLP generated from peptide monomers characterized by SEQ ID: 10 (VQPINK) | 34% | 116 | 129 | 143 | 129 | −69% | 9% | 36 | 37 | 36 | 36 | −91% |  | beta sheet formation | random coil formations | Effect of inhibitor polymer on fibril formation of K18 Tau ([1]; two concentrations, 1 μM and 10 μM, with heparin (FIG. 29)): significantly prevented fibril formation of K18 Tau
4 | VQIINKRR [P4] | 177% | 588 | 558 | 657 | 601 | 46% | 129% | 417 | 497 | 395 | 436 | 6% | beta sheet formation |  |  | 
5 | VQPINK [P12] | 182% | 605 | 555 | 693 | 618 | 50% | 140% | 584 | 413 | 424 | 474 | 15% | beta sheet formation |  |  | 
